Experimental data taken from patent publication US6632633B1, “Process for oxidation of steroids and genetically engineered cells used therein” (Aventis Pharma, S.A., priority 1988, dated 2003).

B1: type I enzyme: human 3β-hydroxy-5-ene steroid dehydrogenase/5-ene-4-ene isomerase type I, isolated from placenta, also expressed in skin (protein, UniProt P14060 2-373, looked up)
3 beta-hydroxysteroid …: TGWSCLVTGAGGFLGQRIIRLLVKEKELKEIRVLDKAFGPELREEFSKLQNKTKLTVLEGDILDEPFLKRACQDVSVIIHTACIIDVFGVTHRESIMNVNVKGTQLLLEACVQASVPVFIYTSSIEVAGPNSYKEIIQNGHEEEPLENTWPAPYPHSKKLAEKAVLAANGWNLKNGGTLYTCALRPMYIYGEGSRFLSASINEALNNNGILSSVGKFSTVNPVYVGNVAWAHILALRALQDPKKAPSIRGQFYYISDDTPHQSYDNLNYTLSKEFGLRLDSRWSFPLSLMYWIGFLLEIVSFLLRPIYTYRPPFNRHIVTLSNSVFTFSYKKAQRDLAYKPLYSWEEAKQKTVEWVGSLVDRHKETLKSKTQ
B2: type II 3β HSDH: human 3β HSDH type II, isolated from adrenals and gonads (protein, UniProt P26439 1-372, looked up)
3 beta-hydroxysteroid …: MGWSCLVTGAGGLLGQRIVRLLVEEKELKEIRALDKAFRPELREEFSKLQNRTKLTVLEGDILDEPFLKRACQDVSVVIHTACIIDVFGVTHRESIMNVNVKGTQLLLEACVQASVPVFIYTSSIEVAGPNSYKEIIQNGHEEEPLENTWPTPYPYSKKLAEKAVLAANGWNLKNGDTLYTCALRPTYIYGEGGPFLSASINEALNNNGILSSVGKFSTVNPVYVGNVAWAHILALRALRDPKKAPSVRGQFYYISDDTPHQSYDNLNYILSKEFGLRLDSRWSLPLTLMYWIGFLLEVVSFLLSPIYSYQPPFNRHTVTLSNSVFTFSYKKAQRDLAYKPLYSWEEAKQKTVEWVGSLVDRHKETLKSKTQ
B3: purified ADX: adrenodoxin purified from bovine adrenal cortex, 10 μM in buffer (protein)
chain: SSSEDKITVHFINRDGETLTTKGKIGDSLLDVVVQNNLDIDGFGACEGTLACSTCHLIFEQHIFEKLEAITDEENDMLDLAYGLTDRSRLGCQICLTKAMDNMTVRVPDAVSDARESIDMGMNSSKIE
B4: bovine P45017α: bovine cytochrome P450 steroid 17α-hydroxylase expressed in K. lactis under the lactase promoter (protein, UniProt P05185 1-509, looked up)
Steroid …: MWLLLAVFLLTLAYLFWPKTKHSGAKYPRSLPSLPLVGSLPFLPRRGQQHKNFFKLQEKYGPIYSFRLGSKTTVMIGHHQLAREVLLKKGKEFSGRPKVATLDILSDNQKGIAFADHGAHWQLHRKLALNAFALFKDGNLKLEKIINQEANVLCDFLATQHGEAIDLSEPLSLAVTNIISFICFNFSFKNEDPALKAIQNVNDGILEVLSKEVLLDIFPVLKIFPSKAMEKMKGCVQTRNELLNEILEKCQENFSSDSITNLLHILIQAKVNADNNNAGPDQDSKLLSNRHMLATIGDIFGAGVETTTSVIKWIVAYLLHHPSLKKRIQDDIDQIIGFNRTPTISDRNRLVLLEATIREVLRIRPVAPTLIPHKAVIDSSIGDLTIDKGTDVVVNLWALHHSEKEWQHPDLFMPERFLDPTGTQLISPSLSYLPFGAGPRSCVGEMLARQELFLFMSRLLQRFNLEIPDDGKLPSLEGHASLVLQIKPFKVKIEVRQAWKEAQAEGSTP

Experiments:
pregnenolone = conditions: after expression in HeLa cells of the respective cDNA's; cited from earlier work
cytochrome P450SCC = biological target: T1, cytochrome P450SCC (Bos taurus, UniProt P00189); assay: ADX activity (electron transfer from adrenodoxin reductase to cytochrome P450SCC) in cell-free extracts by P450SCC activity assay; format: biochemical, bovine; conditions: within 15 minutes at 30° C.
T1 construct: 1.5 μM of P450 SCC (purified from bovine adrenal cortex); from tissue; host or cells: bovine adrenal cortex
T1 sequence (P00189 40-520): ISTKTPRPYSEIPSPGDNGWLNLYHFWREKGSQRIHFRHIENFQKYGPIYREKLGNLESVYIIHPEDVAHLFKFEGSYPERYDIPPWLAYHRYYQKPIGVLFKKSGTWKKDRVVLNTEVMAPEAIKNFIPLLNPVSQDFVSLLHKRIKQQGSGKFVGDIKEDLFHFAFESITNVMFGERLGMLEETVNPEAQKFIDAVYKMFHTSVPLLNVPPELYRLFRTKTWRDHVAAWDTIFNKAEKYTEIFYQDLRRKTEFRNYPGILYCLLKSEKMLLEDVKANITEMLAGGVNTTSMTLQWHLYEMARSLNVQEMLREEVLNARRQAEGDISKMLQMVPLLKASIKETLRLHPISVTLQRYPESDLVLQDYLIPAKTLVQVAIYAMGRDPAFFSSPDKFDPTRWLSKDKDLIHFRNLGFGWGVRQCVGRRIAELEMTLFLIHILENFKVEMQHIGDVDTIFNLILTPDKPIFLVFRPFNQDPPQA
Method: K. lactis ADX-102, obtained as described in Example 23, and control strain K. lactis CBS 2360 were grown in 100 ml of YEPD medium (1% yeast extract, 2% peptone, 2% glucose monohydrate) containing 2.5 ml of a 6.7% (w/w) yeast nitrogen base (Difco laboratories) solution and 100 mg 1^−1 of geneticin (G418 sulfate; Gibco Ltd.), for 56 hours at 30° C. The cells were collected by centrifugation (4,000×g, 15 minutes), resuspended in a physiological salt solution and washed with a phosphate buffer (pH 7.0, 50 mM). After centrifugation (4,000×g, 15 minutes), the pellet was resuspended in a phosphate buffer (pH 7.0, 50 mM) resulting in a suspension containing 0.5 g cell wet weight/ml. The cells were disrupted using a Braun MSK Homogenizer (6×15 seconds, 0.45-0.50 mm glass beads) and unbroken cells were removed by centrifugation (4,000×g, 15 minutes). […]
ADX activity, i.e. electrotransfer capacity from adrenodoxin reductase to cytochrome P450SCC, in the cell-free extracts was determined by a P450SCC activity assay. […]
The assay was started by mixing 75 μl of solution A with 50 μl of solution B and 125 μl of cell-free extract or 125 μl of a potassium phosphate buffer (50 mM, pH 7.0) containing 10 μM ADX (purified from bovine adrenal cortex). […] The suspension was heated for 15 minutes at 120° C. and then, the ^14C/^3H ratio was determined by double label liquid scintillation counting. […]

progesterone = assay: In vivo activity of bovine P45017α in whole cells of transformed Kluyveromyces lactis (3H-labelled steroid, RP-HPLC); format: cell-based; conditions: expressed in K. lactis under the lactase promoter
Method: Transformation of K. lactis strain CBS 2360 was performed with pGB 17α-5 as described in Example 14 and in vivo activity was determined in the whole cells of the transformed K. lactis strain. Four independent transformants (17α-3,17α-7,17α-10 and 17α-11) were grown in rich medium (10 g of yeast extracts, 10 g of bactopeptone and 20 g of glucose/liter) for 72 hours to reach an A600 of at least 30. The cells were harvested and resuspended at 1×10^6 cells/ml (A600 =1).
Five ml of culture were incubated in the presence of ^3H-labelled progesterone (20 μM) for 24 hours at 28° C. and then were extracted with dichloromethane. […] The amount of 17α-hydroxyprogesterone was about 40% (about 23% to 58% depending on the transformant) of the substract added (see FIG. 57 corresponding to 17α-3). No androstenedione, which was the product of the C17-20-lyase activity of P45017α, was detected.
^3H-labelled 17α-hydroxyprogesterone was also incubated with the transformants under the conditions described above and after 24 hours of incubation, no androstenedione was detected.

| Molecule | Km (pregnenolone) [µM] | further results |
| --- | --- | --- |
| B1 | 0.24 |  |
| B2 | 1.2 |  |
| B3 |  | yield of cholesterol side chain cleavage (cytochrome P450SCC): 50% |
| B4 |  | C17-20 lyase activity (progesterone): does not show any activity C17-20 lyase |
